These results are taken from patent publication US20100129390A1, “DKK1 AS A UNIVERSAL TUMOR VACCINE FOR IMMUNOTHERAPY OF CANCERS” (priority 2007, published 2010).

Assay [1] deals with HLA-A*0201 transgenic mice. As to the kind of experiment: In vivo immunogenicity of the peptides. Particulars: 100 μg per mouse s.c., single immunization, splenocytes two weeks after. The source says:
HLA-A*0201 transgenic (Tg[HLA-A2.1]) mice were purchased from Jackson Laboratory (Bar Harbor, Me.). Ishioka, G. Y., et al., Utilization of MHC Class I Transgenic Mice for Development of Minigene DNA Vaccines Encoding Multiple HLA-Restricted CTL Epitopes, J. Immunol. 1999, 162:3915-3925; Alexander, J., et al., A Decaepitope Polypeptide Primes for Multiple CD8+ IFN-Gamma and Th Lymphocyte Responses: Evaluation of Multiepitope Polypeptides as a Mode for Vaccine Delivery, J. Immunol. […] Mice were maintained at the animal facility and studies were approved by the Institutional Animal Care and Use Committees of The University of Texas M. D. Anderson Cancer Center.
For immunization, peptides were diluted in PBS at room temperature, mixed, and emulsified with an equal volume of incomplete Freund's adjuvant (Sigma). […]
To examine whether the peptides were able to immunize HLA-A*0201 transgenic mice, we injected 100 μg per mouse of peptides P20 (SEQ. ID NO. 1) and P66v (SEQ. ID. NO. 4), and Flu-matrix peptide as positive control s.c. to the mice (3 mice per peptide) according to established protocol. […] In vivo immunization successfully generated peptide-specific T cells, detected as specific IFN-γ-expressing (FIG. 2C) and peptide (P20 or P66v)-HLA-A*0201 tetramer^+ CD8^+ T cells (FIG. 2D).

Assay [2] deals with DKK1 peptide-specific T-cell lines. The assay can be described thus: T-cell proliferation assay (3[H]-thymidine). As to conditions: after 3 to 4 rounds of in vitro stimulation; P<0.01 compared with unpulsed DC. Type of assay: cell-based, human. How it is done: DKK1-specific T cells were generated from PBMCs of HLA-A*0201^+ blood donors and myeloma patients by repeated stimulation of autologous T cells with DKK1 peptide-loaded mature DCs. Briefly, the non-adherent cells of PBMCs (2×10^6/mL; used as T-cell population) were cocultured in 50 mL tissue-culture flasks at 37° C. in 5% CO2 for 7-10 days in Aim-V medium supplemented with 10% pooled human serum (T-cell medium) with mature DCs (2×10^5/mL) preincubated with DKK1 peptides at a final concentration of 50 μg/mL at 37° C. for 2 h. After culture, T cells were collected and restimulated with DKK1 peptide-pulsed autologous mature DCs every week, and the cultures were fed every 5 days with fresh medium containing recombinant IL-2 (20 IU/mL), IL-7 (5 ng/mL) and IL-15 (5 ng/mL; all from R&D System). Induction of DKK1-specific T cells was monitored weekly using T-cell proliferation assay and DKK1 peptide-HLA-A*0201 tetramers (synthesized by MHC Tetramer Laboratory, Baylor College of Medicine, Houston, Tex.). […]
T cells (5×10^4/100 μL/well) were seeded into 96-well U-bottom tissue culture plates (Corning Incorporated, Corning, N.Y.) in T-cell medium. […] T-cell proliferation was measured after overnight incubation with ^3[H]-thymidine ([…]/0.037 MBq/well). Results are expressed as mean count per minute (CPM) of triplicate cultures.

For assay [3], the target named is T1, HLA-A*0201 molecules on T2 cells (human).
T1 construct: MHC class I molecule on T2 cells; also called HLA-A2.1
The assay can be described thus: cell-based or functional assay.

Assay [4] has as its target T2, HLA-A*0201 molecules (Homo sapiens, UniProt P04439, D140Y/D185E/D98H/E176V/E277Q/G131W/G231S/I119V/I121R/I166T/I218V/L300P/L318F/N151K/N90K/P208A/P217A/Q86G/Q94H/R138H/R169H/T345S).
T2 construct: endogenous in cells; host or cells: T2 cell line
As to the kind of experiment: Peptide-T2 cell binding assay. Particulars: HLA-A*0201 expression by flow cytometry (FIG. 2A). Here is the method: All peptides were synthesized in the Peptide Synthesis Facility at M. D. Anderson Cancer Center. Purity of synthetic peptides was confirmed to be >98% by reverse-phase high-performance liquid chromatography and mass spectrometry. Synthetic peptides were dissolved in dimethylsulfoxide (DMSO; Sigma, St. Louis, Mo.), and stored at −20° C. until use. Peptides binding to HLA-A*0201 molecules were measured using the T2 cell line according to a protocol previously described. Nijman, H. W., et al., Identification of Peptide Sequences that Potentially Trigger HLA-A2.1-Restricted Cytotoxic T Lymphocytes, Eur J. Immunol. 1993, 23:1215-1219. Briefly, T2 cells were incubated overnight with 3 μg/mL of β2-microglobulin (Sigma) and different concentrations of peptides, followed by wash and incubation with FITC-labeled anti-HLA-A*0201 mAb BB7.2 (BD PharMingen). After washing, cells were analyzed for the levels of HLA-A*0201 expression by flow cytometry. HLA-A*0201 expression was quantified according to the formula [(mean fluorescence with peptide−mean fluorescence without peptide)/mean fluorescence without peptide]×100.
A general note: A flow cytometer gives signals particle by particle.

Assay [5] concerns the target HLA-ABC. As to the kind of experiment: cell-based or functional assay.
The target in assay [6] is T1, HLA-A*0201 molecules on T2 cells. As to the kind of experiment: peptide-T2 cell binding assay, flow cytometry of surface HLA-A*0201 with mAb BB7.2. Here is the method: All peptides were synthesized in the Peptide Synthesis Facility at M. D. Anderson Cancer Center. Purity of synthetic peptides was confirmed to be >98% by reverse-phase high-performance liquid chromatography and mass spectrometry. Synthetic peptides were dissolved in dimethylsulfoxide (DMSO; Sigma, St. Louis, Mo.), and stored at −20° C. until use. […] Nijman, H. W., et al., Identification of Peptide Sequences that Potentially Trigger HLA-A2.1-Restricted Cytotoxic T Lymphocytes, Eur J. Immunol. 1993, 23:1215-1219.

Assay [7] concerns murine myeloma cell line tumor-A. The assay can be described thus: Vaccination and murine myeloma challenge. As to conditions: vaccinated three times, s.c. challenge with tumor-A 1×10^6 cells/mouse. In kind it is in vivo, Balb/c mice. Here is the method:
Balb/c mice (4 per group) were s.c. vaccinated three times with murine DKK1 protein (50 ug/mouse) at a 30-day interval followed by s.c. challenge with murine myeloma cell line tumor-A (1×10^6 cells/mouse) after one weeks of third vaccination. Tumor burdens were measured twice every wk. Mice were euthanized when s.c. tumors reached 225 mm^2 or when mice became moribund. FIG. 18A is a graph depicting ELISA titers of anti-DKK1 antibody in the serum of immunized mice. Results shown in FIG. 18B are survival of mice that received DKK1 protein vaccinations and PBS control. Splenocytes were isolated from survival mice and pooled, and restimulated with irradiated tumor-A for 5 d. […]
Balb/c mice (5 per group) were s.c. vaccinated three times with three DKK1 peptides (100 ug/mouse) at a 14-day interval followed by s.c. challenge with murine myeloma cell line tumor-A (1×10^6 cells/mouse) after one week of third vaccination. Tumor burdens were measured twice every wk. […]
Balb/c mice (5 per group) were i.m. vaccinated three times with murine DKK1 DNA (50 ug/mouse) at a 14-day interval followed by s.c. challenge with murine myeloma cell line tumor-A (1×10^6 cells/mouse) after one weeks of third vaccination. Tumor burdens were measured twice every wk. […]

On to “ALGGHPLLGV (listed as Homo Sapiens) [P20]”, for which, in assay [1], the “immunogenicity in immunizing the mice” value is on record as “as immunogenic as the Flu-matrix peptide”. Moreover, in assay [2], the “T-cell line proliferation in response to autologous DCs pulsed with peptide” value was “proliferated in response to autologous DCs pulsed, but not unpulsed”.

With anti-HLA-A*0201 mAb BB7.2 (antibody), the inhibition of T cell-mediated cytotoxicity against peptide-pulsed T2 cells (51Cr release) in assay [3] lay in the range of 70 to 80 % inhibition.

“ILYPGGNKV (listed as Homo Sapiens) [P66v]”: in assay [1], the “immunogenicity in immunizing the mice” value is recorded as “as immunogenic as the Flu-matrix peptide”. Further, the “T-cell line proliferation in response to autologous DCs pulsed with peptide” value in assay [2] is given as “proliferated in response to autologous DCs pulsed, but not unpulsed”. Moreover, the binding affinity result in assay [4] is listed as “much higher binding affinity than P66”.

On to anti-HLA-ABC mAb W6/32 (antibody), for which the inhibition of T cell-mediated cytotoxicity against peptide-pulsed T2 cells (51Cr release) in assay [5] lay in the range of 70 to 80 % inhibition.

B1: DKK1 peptide P20 (peptide)
peptide: ALGGHPLLGV
notes: Synthetic peptide, purity >98%; the end of the range follows from the length of 10 residues
On to B1, for which, in assay [6], the binding result is listed as “binds”.

For the molecule YLGGHPLLGV (Heteroclitic variant of P20) [DKK1 heteroclitic peptide Py20], the binding result in assay [6] is on record as “binds”.

As for ILYPGGNKV (Heteroclitic variant of P66) [DKK1 heteroclitic peptide P66v], the binding result in assay [6] is recorded as “binds”.

B2: DKK1 peptide P66 (peptide)
peptide: ILYPGGNKY
notes: Synthetic peptide; the end of the range follows from the length of 9 residues
Turning to B2, the binding result in assay [6] is on record as “binds”.

B3: DKK1 Protein Vaccine: murine DKK1 protein, 50 ug/mouse s.c. (protein, UniProt O54908 32-272, looked up)
Dickkopf-related protein 1: TLNSVLINSNAIKNLPPPLGGAGGQPGSAVSVAPGVLYEGGNKYQTLDNYQPYPCAEDEECGSDEYCSSPSRGAAGVGGVQICLACRKRRKRCMRHAMCCPGNYCKNGICMPSDHSHFPRGEIEESIIENLGNDHNAAAGDGYPRRTTLTSKIYHTKGQEGSVCLRSSDCAAGLCCARHFWSKICKPVLKEGQVCTKHKRKGSHGLEIFQRCYCGEGLACRIQKDHHQASNSSRLHTCQRH
As for B3, the “protection against murine MM challenge” value in assay [7] is given as “can Protect Murine MM Challenge”.
